Experimental data as given in patent publication US20180021429A1 (PHARMA FOODS INTERNATIONAL, published 2018).
Positions count from the first letter of the chain named.

T1: His-tagged human FSTL1 (amino acid sequence of human FSTL1 used in Examples, SEQ ID NO: 70) (human, UniProt Q12841 21-308)
T1 construct: Parent of the deletion mutants
T1 sequence: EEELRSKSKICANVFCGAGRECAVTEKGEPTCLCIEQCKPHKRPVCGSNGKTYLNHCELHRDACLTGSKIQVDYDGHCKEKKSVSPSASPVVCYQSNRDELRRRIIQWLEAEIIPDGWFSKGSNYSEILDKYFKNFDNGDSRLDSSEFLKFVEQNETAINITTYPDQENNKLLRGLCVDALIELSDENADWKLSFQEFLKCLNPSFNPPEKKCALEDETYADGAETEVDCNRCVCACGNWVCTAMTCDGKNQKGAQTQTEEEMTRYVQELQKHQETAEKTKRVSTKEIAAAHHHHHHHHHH

T2: His-tagged mouse FSTL1 (amino acid sequence of mouse FSTL1 used in Examples, SEQ ID NO: 72) (mouse, UniProt Q62356 19-306)
T2 sequence: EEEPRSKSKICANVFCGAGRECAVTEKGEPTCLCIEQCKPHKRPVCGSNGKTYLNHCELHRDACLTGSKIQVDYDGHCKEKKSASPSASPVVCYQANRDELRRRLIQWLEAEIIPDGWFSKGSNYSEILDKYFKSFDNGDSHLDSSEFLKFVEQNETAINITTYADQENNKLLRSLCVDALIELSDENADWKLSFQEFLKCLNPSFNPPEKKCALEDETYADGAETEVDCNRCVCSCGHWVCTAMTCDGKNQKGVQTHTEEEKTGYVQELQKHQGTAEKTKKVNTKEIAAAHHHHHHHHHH

T3: human FSTL1 (construct not stated) (human, UniProt Q12841 21-308)
T3 construct: also called human FSTL1 antigen; FSTL1 (R&D Systems, Inc. Cat#1694-FN-050)
T3 sequence: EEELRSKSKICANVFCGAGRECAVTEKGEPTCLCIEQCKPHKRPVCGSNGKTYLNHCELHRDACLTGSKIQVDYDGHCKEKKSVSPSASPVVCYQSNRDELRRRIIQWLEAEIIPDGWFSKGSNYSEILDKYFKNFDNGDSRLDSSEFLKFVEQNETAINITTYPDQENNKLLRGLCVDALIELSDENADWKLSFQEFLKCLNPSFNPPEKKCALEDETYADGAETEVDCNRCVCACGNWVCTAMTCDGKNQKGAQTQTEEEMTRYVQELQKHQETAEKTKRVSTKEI

B1: anti-FSTL1 antibody clone #22 (chicken-mouse chimeric antibody) (antibody, mouse IgG1, kappa, V domains shown)
VH: AVTLDESGGGLQTPGGALSLVCKASGFTFSSNGMAWVRQAPGKGLELVARINSSGSYTNYGAAVKGRATISRDNGQSTVRLQLNNLRAEDTGTYYCAKGASGYGAYPGNIDAWGHGTEVIVSS
VL: ASTQPSSVSANPGETVKITCSGGSGSYGWFQQKSPGSAPVTVIYWDDRRPSDIPSRFSGSKSGSIHTLTITGVQADDEAVYLCGNAVRSGTGYVGVFGAGTTLTVLG
B2: anti-FSTL1 antibody clone #7-34 (chicken-mouse chimeric antibody) (antibody, mouse IgG1, kappa, V domains shown)
VH: AVTLDESGGGLQTPGGGLSLVCKASGFTFSSVTMQWVRQAPGKGLEWVASICSGSSTYYGPAVKGRATISRDNGQNTVRLQLNNLRAEDTATYYCAKIVGRGRWSCTSAAYNIDAWGHGTEVIVSS
VL: ASTQPSSVSANPGETVKITCSGGGNNYGWYQQKSPGSAPVTVIYYNNNRPSNIPSRFSGSTSGSTSTLTITGVQAEDEAVYYCGSYEGSTDSGIFGAGTTLTVLG
B3: anti-FSTL1 antibody clone #8-4 (chicken-mouse chimeric antibody) (antibody, mouse IgG1, kappa, V domains shown)
VH: AVTLDESGGGLQTPGGGLSLVCKGSGFTLSSFNMFWVRQAPGKGLEWVAGVGKDGGTAYGAAVDGRATISRDSGQSTVRLQLNNLRAEDTGTYFCAKAAGGCSYSWCGAYVGDLDAWGHGTEVIVSS
VL: ASSQPSSVSANPGETVKITCSGGSGYYYGWYQQKSPGSAPVTVIYNNDNKPSDIPSRFSGSKSGSTGTLTITGVQVEDEAVYFCGGYDNSGTGIFGAGTTLTVLG
B4: anti-FSTL1 antibody clone #10 (chicken-mouse chimeric antibody) (antibody, mouse IgG1, kappa, V domains shown)
VH: AVTLDESGGGLQTPGGALSLVCKASGFFFFRIYDMGWVRQAPGKGLEWVAGIDDYGRYTGYGSAVKGRATISRDNGQSTVRLQLNNLRAEDTGTYYCARGAGTGCNSAGCGAYAGSIDAWGHGTEVIVSS
VL: ASTQPSSVSANPGETVKLTCSGGGSRYGWYQQKSPGSAPVTVIYYNDKRPSDIPSRFSGSKSGSTATLTITGVQAEDEAVYFCGGYDGSRDAGIFGAGTTLTVLG
B5: optimized humanized antibody (humanized #6-55 H(2)-L(1), human IgG4 H chain constant region, λ L chain constant region) (antibody)
heavy: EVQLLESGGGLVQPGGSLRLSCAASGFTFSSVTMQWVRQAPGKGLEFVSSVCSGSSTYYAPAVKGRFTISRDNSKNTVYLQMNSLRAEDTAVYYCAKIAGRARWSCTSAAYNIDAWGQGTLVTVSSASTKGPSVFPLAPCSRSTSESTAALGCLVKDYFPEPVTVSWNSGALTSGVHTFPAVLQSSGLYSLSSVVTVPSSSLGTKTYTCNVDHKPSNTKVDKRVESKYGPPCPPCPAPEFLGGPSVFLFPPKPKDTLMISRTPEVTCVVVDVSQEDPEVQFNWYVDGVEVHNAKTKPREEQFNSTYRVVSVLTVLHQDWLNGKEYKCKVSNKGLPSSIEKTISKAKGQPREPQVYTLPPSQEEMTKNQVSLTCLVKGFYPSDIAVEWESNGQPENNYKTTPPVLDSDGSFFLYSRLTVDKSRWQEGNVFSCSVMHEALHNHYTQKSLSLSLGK
light: SYELTQPPSVSVSPGQTARITCSGGGNNYGWYQQKPGQAPVTVIYYNDNRPSGIPERFSGSNSGSTTTLTISGVQAEDEADYYCGSWDSNTDSGIFGGGTKLTVLGQPKAAPSVTLFPPSSEELQANKATLVCLISDFYPGAVTVAWKADSSPVKAGVETTTPSKQSNNKYAASSYLSLTPEQWKSHRSYSCQVTHEGSTVEKTVAPTECS
notes: Expressed in ExpiCHO
B6: humanized #6-55 antibody H(1)-L(1) (IgG1 type) (antibody, V domains shown)
VH: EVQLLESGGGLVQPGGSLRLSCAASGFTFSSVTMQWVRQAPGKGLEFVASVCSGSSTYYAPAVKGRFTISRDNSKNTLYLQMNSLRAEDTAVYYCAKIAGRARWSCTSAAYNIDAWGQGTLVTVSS
VL: SYELTQPPSVSVSPGQTARITCSGGGNNYGWYQQKPGQAPVTVIYYNDNRPSGIPERFSGSNSGSTTTLTISGVQAEDEADYYCGSWDSNTDSGIFGGGTKLTVLG
notes: Human IgG1 constant region; expressed in HEK293 with a chicken antibody leader; also called h#6-55 H(1)-L(1)
B7: humanized #6-55 antibody H(2)-L(2) (IgG1 type) (antibody, V domains shown)
VH: EVQLLESGGGLVQPGGSLRLSCAASGFTFSSVTMQWVRQAPGKGLEFVSSVCSGSSTYYAPAVKGRFTISRDNSKNTVYLQMNSLRAEDTAVYYCAKIAGRARWSCTSAAYNIDAWGQGTLVTVSS
VL: B6 VL with N62T
notes: Human IgG1 constant region; expressed in HEK293; also called h#6-55 H(2)-L(2)
B8: humanized #6-55 antibody H(1)-L(3) (IgG1 type) (antibody, V domains shown)
VH: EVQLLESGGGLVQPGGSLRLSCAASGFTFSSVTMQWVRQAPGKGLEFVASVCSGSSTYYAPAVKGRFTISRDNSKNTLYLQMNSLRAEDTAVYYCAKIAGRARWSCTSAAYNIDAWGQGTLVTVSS
VL: B6 VL with S65N, T67A
notes: Human IgG1 constant region; expressed in HEK293; also called h#6-55 H(1)-L(3)
B9: humanized #6-55 antibody H(1)-L(2) (IgG1 type) (antibody, V domains shown)
VH: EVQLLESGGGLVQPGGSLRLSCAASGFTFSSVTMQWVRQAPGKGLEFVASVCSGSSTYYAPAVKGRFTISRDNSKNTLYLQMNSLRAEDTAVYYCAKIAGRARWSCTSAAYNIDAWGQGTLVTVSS
VL: B6 VL with N62T
notes: Human IgG1 constant region; expressed in HEK293; also called h#6-55 H(1)-L(2)
B10: humanized #6-55 antibody H(2)-L(3) (IgG1 type) (antibody, V domains shown)
VH: B7 VH
VL: B6 VL with S65N, T67A
notes: Human IgG1 constant region; expressed in HEK293; also called h#6-55 H(2)-L(3)
B11: humanized #6-55 antibody H(3)-L(3) (IgG1 type) (antibody, V domains shown)
VH: B7 VH with S49A, F67V
VL: B6 VL with S65N, T67A
notes: Human IgG1 constant region; expressed in HEK293; also called h#6-55 H(3)-L(3)
B12: humanized #6-55 antibody H(2)-L(1) (IgG1 type) (antibody)
heavy: not shown
light: SYELTQPPSVSVSPGQTARITCSGGGNNYGWYQQKPGQAPVTVIYYNDNRPSGIPERFSGSNSGSTTTLTISGVQAEDEADYYCGSWDSNTDSGIFGGGTKLTVLGTVAAPSVFIFPPSDEQLKSGTASVVCLLNNFYPREAKVQWKVDNALQSGNSQESVTEQDSKDSTYSLSSTLTLSKADYEKHKVYACEVTHQGLSSPVTKSFNRGEC
notes: Human IgG1 constant region; expressed in HEK293; lead antibody; also called h#6-55 H(2)-L(1); humanized #6-55 H chain (2)+L chain (1)

What follows are binders tested against T1, His-tagged human FSTL1 (amino acid …) (assay: ELISA, human FSTL1 coated (FIG. 3A)).

| binding result | Binder |
| --- | --- |
| binds | B1 |

These binders were tested against T2, His-tagged mouse FSTL1 (amino acid …) (assay: ELISA, mouse FSTL1 coated (FIG. 1B)).

| binding result | Binder |
| --- | --- |
| binds | B2 |

The binders below were run against T2, His-tagged mouse FSTL1 (amino acid …) (assay: ELISA, mouse FSTL1 coated (FIG. 3B)).

| binding result | Binder |
| --- | --- |
| binds | B4 |
| binds | B1 |

| Binder | binding result |
| --- | --- |
| B3 | no binding (tested: antibody diluted from 100 ng/ml) |

Each binder was assayed against T3, human FSTL1 (construct not stated) (assay: SPR (Biacore T-200), captured antibody, human FSTL1 10 µg/ml).
Experimental: (§1) The mouse chimeric antibodies were immobilized onto Sensor Chip CM5 (GE Healthcare Japan Corp., BR-1005-30) using Mouse Antibody Capture Kit (GE Healthcare Japan Corp., BR-1008-38), and their affinity for human FSTL1 was calculated using Biacore T-200 (GE Healthcare Japan Corp.).

| Binding amount (RU) | Dissociation amount (RU) | Binder |
| --- | --- | --- |
| 11.6 RU | 6.2 RU | B3 |
| 14.2 RU | 2.5 RU | B2 |
| 11.7 RU | 6 RU | B4 |

Molecular target: T3, human FSTL1 (construct not stated)
Assay: as above
Remark: another data set of the same source
Experimental: as §1
(§2) First, the exhaustive activity comparison of the obtained antibodies was conducted with the human FSTL1 concentration fixed to 10 μg/ml (Table 33-1, FIG. 28).

| Binding amount (RU) | Dissociation amount (RU) | Binder |
| --- | --- | --- |
| 11.6 RU | 6.2 RU | B3 |
| 14.2 RU | 2.5 RU | B2 |
| 11.7 RU | 6 RU | B4 |

Molecular target: T3, human FSTL1 (construct not stated)
Assay: as above
Remark: another data set of the same source
Experimental: as §1, §2

| Binding amount (RU) | Dissociation amount (RU) | Binder |
| --- | --- | --- |
| 11.6 RU | 6.2 RU | B3 |
| 14.2 RU | 2.5 RU | B2 |
| 11.7 RU | 6 RU | B4 |

Molecular target: T3, human FSTL1 (construct not stated)
Assay: as above
Remark: another data set of the same source
Experimental: as §1, §2

| Binding amount (RU) | Dissociation amount (RU) | Binder |
| --- | --- | --- |
| 11.6 RU | 6.2 RU | B3 |
| 14.2 RU | 2.5 RU | B2 |
| 11.7 RU | 6 RU | B4 |

Each binder was assayed against T3, human FSTL1 (construct not stated) (assay: BLI (BLItz), biotinylated antigen 5 µg/ml on streptavidin sensor, antibody 0 to 40 ug/ml).
Experimental: The binding activity of the obtained purified antibody against FSTL1 was measured by use of the BLI method (BLItz, Pall Corp., 45-5000). The antigen was biotinylated using EZ-Link NHS-PEG4-Biotin (Thermo Fisher Scientific Inc., 21329). Streptavidin Tray (Pall Corp., 18-5019) was used as a sensor chip for the BLI method. The sensor chip was hydrated with PBS (Wako Pure Chemical Industries, Ltd., 166-23555) for 10 minutes or longer. 5 μg/ml of the biotinylated antigen was immobilized onto the hydrated sensor chip for 300 seconds. The antibody was adjusted to 40, 20, 10, 5, 2.5, or 0 ug/ml and reacted therewith for 120 seconds, and dissociation was measured for 300 seconds. When the antibody concentration of 0 ug/ml was used as a reference, the KD value was calculated.

| Kd | Binder |
| --- | --- |
| 10.9 nM | B5 |

These binders were tested against T3, human FSTL1 (construct not stated) (assay: SPR (Biacore T-200), antibody on Human Antibody Capture Kit, human FSTL1 0 to 20 µg/ml).
Experimental: (§3) Nine IgG1-type humanized antibodies of #6-55 were immobilized onto Sensor Chip CM5 (GE Healthcare Japan Corp., BR-1005-30) using Human Antibody Capture Kit (GE Healthcare Japan Corp., BR-1008-38), and their affinity for human FSTL1 was calculated using Biacore T-200 (GE Healthcare Japan Corp.). […] Among the 9 IgG1-type humanized antibodies of #6-55, a clone composed of a combination “H(2)-L(1)” having a […] KD value was selected as a lead antibody.

| Kd | Binder |
| --- | --- |
| 35.2 nM | B6 |
| 11.3 nM | B7 |
| 26.8 nM | B8 |
| 25 nM | B9 |
| 45 nM | B10 |
| 24.9 nM | B11 |
| 60.5 nM | B12 |

Molecular target: T3, human FSTL1 (construct not stated)
Assay: as above
Remark: another data set of the same source
Experimental: as §3

| Kd | Binder |
| --- | --- |
| 35.2 nM | B6 |
| 11.3 nM | B7 |
| 26.8 nM | B8 |
| 25 nM | B9 |
| 45 nM | B10 |
| 24.9 nM | B11 |
| 60.5 nM | B12 |

Molecular target: T3, human FSTL1 (construct not stated)
Assay: as above
Remark: another data set of the same source
Experimental: as §3

| Kd | Binder |
| --- | --- |
| 35.2 nM | B6 |
| 11.3 nM | B7 |
| 26.8 nM | B8 |
| 25 nM | B9 |
| 45 nM | B10 |
| 24.9 nM | B11 |
| 60.5 nM | B12 |

Molecular target: T3, human FSTL1 (construct not stated)
Assay: as above
Remark: another data set of the same source
Experimental: as §3

| Kd | Binder |
| --- | --- |
| 35.2 nM | B6 |
| 11.3 nM | B7 |
| 26.8 nM | B8 |
| 25 nM | B9 |
| 45 nM | B10 |
| 24.9 nM | B11 |
| 60.5 nM | B12 |
